{"source": "patent US20180162928A1", "about": "(Janssen / Centocor, published 2018)", "binders": {"B1": {"name": "ISOP194AR9P1H10 (designed binder, not shown: small tags and cut ends)", "chain": "LPAPKNLVISRVTEDSARLSWPAHYHSAFFDSFLIQYQESEKVGEAIVLTVPGSERSYDLTGLKPGTEYTVSIYGVYQRKVEFHSNPLSAIFTT", "notes": "FN3 domain; E. coli lysate in the ELISA"}}, "key": {"[1]": {"molecular_target": "unrelated Fc-fused recombinant protein", "assay": "ELISA, lysate on plate-bound antigen"}, "[2]": {"molecular_target": "T1, recombinant biotinylated PD-L1 (rhPD-L1/Fc Chimera, R&D Systems 156-B7) (human, UniProt Q9NZQ7 19-238, biotinylated (sites not given))", "T1 construct": "Bought Fc chimera; also called human PD-L1", "T1 sequence (Q9NZQ7 19-238, stated change not applied)": "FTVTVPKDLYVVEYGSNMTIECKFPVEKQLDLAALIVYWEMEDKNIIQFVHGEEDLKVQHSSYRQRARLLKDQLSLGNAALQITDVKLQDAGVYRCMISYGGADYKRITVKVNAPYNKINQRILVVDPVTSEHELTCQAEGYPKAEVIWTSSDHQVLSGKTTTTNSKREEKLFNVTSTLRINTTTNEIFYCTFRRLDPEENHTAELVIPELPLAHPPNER", "assay": "ELISA, lysate on plate-bound antigen", "method_in_brief": "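On streptavidin plates coated with biotinylated PD-L1 (unrelated Fc-fusion protein and HSA as negative controls), diluted lysate was applied for 1 h. Bound FN3 domains detected with HRP-conjugated anti-FN3 antibody and POD substrate.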"}}, "data": [{"binder": "B1", "values": [{"measurement": "ELISA Fc Control (RSU)", "setting": "[1]", "value": 4400, "unit": "RSU"}, {"measurement": "ELISA PD-L1 Fc (RSU)", "setting": "[2]", "value": "5.21e+06", "unit": "RSU"}]}]}
